Data on three molecules can be found in PMC6728052 (PLoS Computational Biology, 2019).

For test [1], the target named is human Vascular-Endothelial Growth Factor (VEGF) (Homo sapiens, UniProt P15692-4). The test is described as follows: SPR.
The next test deals with hen egg-white lysozyme (Gallus gallus, UniProt P00698). The test is described as follows: SPR. A general note: Surface plasmon resonance follows binding to a sensor surface in real time, without labels.
Chain of hen egg-white lysozyme (P00698 19-147): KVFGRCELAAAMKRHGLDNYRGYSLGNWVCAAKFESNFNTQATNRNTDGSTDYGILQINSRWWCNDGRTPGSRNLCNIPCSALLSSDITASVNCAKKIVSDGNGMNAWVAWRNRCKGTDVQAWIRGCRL

B1: G6^des1, Fab (Fab, V domains shown)
VH: EVQLVESGGGLVQPGGSLRLSCAASGFTISDYWIHWVRQAPGKGLEWVAGITPAGGYTHYADSVKGRFTISADTSKNTAYLQMNSLRAEDTAVYFCARFVFFLPYAMDYWGQGTLVTVSS
VL: DIQMTQSPSSLSASVGDRVTITCRASQDVSTAVAWYQQKPGKPPKLLIFSASFLFSGVPSRFSGSGSGTDFTLTISSLQPEDFATYYCLQSYTVTPTFGPGTKVEIK
Regarding B1, the on-rate constant (kon) in test [1] was found to be 327000 M⁻¹ s⁻¹.

B2: G6^des13, Fab (Fab, V domains shown)
VH: EVQLVESGGGLVQPGGSLRLSCAASGFTISDYWIHWVRQAPGKGLEWVAGITPAGGYTHYADSVKGRFTISADTSKNTAYLQMNSLRAEDTAVYFCARFVFFLPYAMDYWGQGTLVTVSS
VL: DIQMTQSPSSLSASVGDRVTITCRASQDVSTAVAWYQQKPGKPPKLLIYSASFLYSGVPSRFSGSGSGTDFTLTISSLQPEDFATYYCLQSYTDTPTFGQGTKVEIK
In test [1], B2 had a dissociation constant Kd of 0.06 nM, an off-rate (koff) of 3.2e-05 s⁻¹ and an on-rate constant (kon) of 530000 M⁻¹ s⁻¹.

B3: D44.1^des, Fab (Fab, V domains shown)
VH: QVQLQESGAEVMKPGASVKISCKATGYTFSTYWIEWMKQRPGGGLEYIGEILPGSGSTYYNEKFKGKATFTADTSSNTAYMQLSSLTSEDSAVYYCARGDGYYKYWGQGTTLTVSS
VL: DIELTQSPATLSVTPGDSVSLSCRASQSISNNLHWYQQKSHEPPRLLIKYVSQSVSGIPSRFSGSGSGTDFTLSINSVETEDFGMYFCGQSNSWPRTFGGGTKLEIK
Consider B3, for which, in the test with hen egg-white lysozyme, binding was put at a Kd of 15 nM, the koff was 0.00079 s⁻¹ and the kon was found to be 53000 M⁻¹ s⁻¹.

For orientation: kon means a measure of how fast the partners come together. Low readings indicate slow association, high ones fast association. One may read the Kd as the equilibrium constant for the complex coming apart. A higher Kd goes with lower affinity. The koff is the first-order rate constant of dissociation. Read a high koff as a short-lived complex.
